Data taken from PMC5673899, “Structural basis for receptor recognition of pollen tube attraction peptides” (Nature Communications, 2017).
Positions count from the first letter of the chain named. Numbers in names are those of the source. Entries after “also recorded” stand apart in the source; their conditions may differ.

Legend:
[1] = biological target: T1, AtPRK6^LRR N239A (residues 1-262) (Arabidopsis thaliana, UniProt Q3E991 27-262, N239A); assay: pull-down; His-tagged LRR protein mixed with excess AtLURE1.2 peptide and held on Ni-NTA resin, on ice 30 min; washed five times with 25 mM Tris pH 8.0, 150 mM NaCl, 15 mM imidazole; eluted with 250 mM imidazole; SDS-PAGE, Coomassie; settings: both partners purified
T1 construct: signal peptide in the construct; PRK6 of Arabidopsis thaliana, extracellular LRR domain, residues 1-262, with N239A; also called N239A mutant of PRK6; source: High Five insect cells (baculovirus), secreted, purified as AtPRK6^LRR; not shown: His6, C-terminal, kept
T1 sequence (looked up): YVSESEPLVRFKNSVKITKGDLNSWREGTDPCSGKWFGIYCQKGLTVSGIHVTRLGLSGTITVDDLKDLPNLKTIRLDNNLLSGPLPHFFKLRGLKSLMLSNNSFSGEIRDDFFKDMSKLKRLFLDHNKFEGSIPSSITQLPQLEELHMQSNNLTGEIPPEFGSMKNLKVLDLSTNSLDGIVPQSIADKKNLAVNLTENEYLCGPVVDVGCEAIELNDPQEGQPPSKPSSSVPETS

[2] = biological target: T2, AtPRK6^LRR, extracellular LRR domain of AtPRK6 (residues 1-262) (Arabidopsis thaliana, UniProt Q3E991 27-262); assay: ITC
T2 chain: T1 sequence (looked up) with A213N

[3] = biological target: T3, AtPRK6^LRR, extracellular LRR domain of AtPRK6 (residues 1-262) (Arabidopsis thaliana, UniProt Q3E991 27-262); assay: ITC; ITC200, 25 °C, 200 mM HEPES pH 7.0, 100 mM NaCl; about 0.9 mM AtLURE1.2 injected (20 x 2 μl) into 0.08 mM LRR protein in the cell; settings: both partners purified
T3 construct: signal peptide in the construct; leucine-rich repeat receptor kinase PRK6 of Arabidopsis thaliana, extracellular LRR domain, residues 1-262; Monomer by gel filtration; likely glycosylated (apparent 34 kDa); source: High Five insect cells (baculovirus), secreted, purified (Ni-NTA, size-exclusion chromatography); also co-expressed with AtLURE1 peptides; not shown: His6, C-terminal, kept
T3 sequence (looked up): T1 sequence (looked up) with A213N

[4] = test system: semi-in-vivo pollen tubes; assay: Gelatin-beads assay, wild-type semi-in-vivo pollen tubes; type: cell-based, Arabidopsis; settings: for pollen tube attraction activity (in words): Tukey−Kramer test, P < 0.05
Method: (§1) Attraction activities of mutant AtLURE1.2 peptides were examined for semi-in-vivo pollen tubes growing through cut, pollinated pistils by gelatin-beads assay and wavy assay, [20]. For the gelatin-beads assay, pollen tubes were grown on solid pollen germination medium poured into a mold made with 1-mm thick silicone rubber and cover glasses. After hand-pollination, the topside cover glass was removed and the medium was covered with hydrated silicone oil (KF-96–100CS; Shin-Etsu). Attraction of pollen tubes toward the peptide was evaluated using AtLURE1 peptide containing gelatine beads under an inverted microscope (IX71, Olympus) equipped with a micro-manipulator (Narishige). For the AtLURE1-responsive wavy assay, the purified AtLURE1.2 peptide was added to solid pollen germination medium, which was melted at 70 °C and then cooled to a certain degree. The mixture was mixed by vortexing and poured into the mold. Pollen tubes of each genotype were grown through cut styles, as mentioned above. Each peptide (25 μM in 10 mM Bis-Tris (pH 6.0) and 100 mM NaCl) was diluted to 250 nM by cultivation medium in both assays. To examine reactivity of PRK6 mutants to AtLURE1.2, constructs for PRK6 mutants, D234A, N239A, and ΔN239I240, were generated by site-directed mutagenesis from a wild-type PRK6 vector, pPZP221-pPRK6::PRK6-mRuby2 (ref. [20]). Wild-type and mutant PRK6 constructs were introduced into prk6–1 plant. After transformants were selected by the same criteria as previously, beads assay and wavy assay were performed in several T1 lines and single T2 line, respectively, for each genotype using 250 nM wild-type AtLURE1.2 peptide.

[5] = test system: semi-in-vivo pollen tubes (wild type); assay: AtLURE-responsive wavy assay, wild-type pollen tubes; type: cell-based, Arabidopsis; settings: 250 nM peptide in solid pollen germination medium
Method: as §1, with “To examine reactivity of PRK6 mutants to AtLURE1.2, constructs for PRK6 mutants, D234A, N239A, and ΔN239I240, were generated by site-directed mutagenesis from a wild-type PRK6 vector, pPZP221-pPRK6::PRK6-mRuby2 (ref. [20]). Wild-type and mutant PRK6 constructs were introduced into prk6–1 plant. After transformants were selected by the same criteria as previously, beads assay and wavy assay were performed in several T1 lines and single T2 line, respectively, for each genotype using 250 nM wild-type AtLURE1.2 peptide.” left out
pollen tubes. Fluorescence is from mRuby2 fused to the C-terminal of PRK6 receptors, showing that all of mutant PRK6 receptors localize normally to the plasma membrane of the pollen tube tip. […]

[6] = test system: AtPRK6^LRR; assay: In vitro pull-down with AtPRK6^LRR; type: binding, Arabidopsis thaliana
From the text: The genes of AtPRK3 ^LRR (residues 1–241), AtPRK4 ^LRR (residues 1–277), AtPRK5 ^LRR (residues 1–279), AtPRK6 ^LRR (residues 1–262), MIK1 ^LRR (residues 1–633), MIK2 ^LRR (residues 1–707) were amplified from Arabidopsis cDNA library by PCR and cloned into pFastBac-1 vector with a C-terminal 6 × His-tag. Their identities were confirmed by sequencing. The mature form of AtLURE1.1 (residues 20–94), AtLURE1.2 (residues 20–90), AtLURE1.3 (residues 21–91), and AtLURE1.4 (residues 20–90) were cloned into pFastBac-1 vector, with a modified N-terminal hemolin signal peptide and 6 × His-SUMO tag. Point mutation constructs were generated by QuickChange Site-Directed Mutagenesis Kit (Strategene). All the proteins were expressed using the Bac-to-Bac baculovirus expression system (Invitrogen) in High Five cells at 22 °C. One liter of High Five cells (2.0 × 10^6 cells mL^−1) cultured in the medium from Expression Systems was infected with 25 ml recombinant baculovirus and the media was collected after 72 h of infection. Secreted LRR proteins were purified using Ni-NTA (Novagen) and size-exclusion chromatography (Hiload 200, GE Healthcare) in buffer containing 10 mM Bis-Tris pH 6.0 and 100 mM NaCl. The His-SUMO tag of the AtLURE proteins was removed by Prescission Protease at 4 °C overnight in buffer containing 25 mM Tris pH 8.0 and 150 mM NaCl. All AtLURE proteins were further cleaned by size-exclusion chromatography (Hiload 200, GE Healthcare). For co-expression of AtPRK6^LRR and AtLURE1, one liter of High Five cells were co-infected with 20 and 30 ml recombinant baculovirus of AtPRK6^LRR and AtLURE1, respectively. Secreted AtPRK6^LRR-AtLURE1 complexes were processed with Prescission Protease digestion and then purified as described above. Expression and purification procedures of all the mutants were essentially the same as those of AtPRK6^LRR and AtLURE1.2.
The purified His-tagged ectodomains of AtPRK proteins and MIK1, 2 were used to pull-down the AtLURE1.2 peptide. […] All the eluted samples were analyzed by SDS-PAGE and visualized by Coomassie blue staining. […]

[7] = biological target: T3, AtPRK6^LRR, extracellular LRR domain of …; assay: pull-down; His-tagged LRR protein mixed with excess AtLURE1.2 peptide and held on Ni-NTA resin, on ice 30 min; washed five times with 25 mM Tris pH 8.0, 150 mM NaCl, 15 mM imidazole; eluted with 250 mM imidazole; SDS-PAGE, Coomassie; settings: both partners purified
[8] = gelatin beads containing 250 nM peptide

B1: AtLURE1.2, mature form (residues 20-90) (peptide, UniProt Q4VP08 20-90, looked up)
chain: TLINGSSDEERTYSFSPTTSPFDPRSLNQELKIGRIGYCFDCARACMRRGKYIRTCSFERKLCRCSISDIK
notes: AtLURE1.2, defensin-like cysteine-rich peptide of Arabidopsis thaliana, mature form, residues 20-90; Cloned in pFastBac-1 behind a modified N-terminal hemolin signal peptide and a 6xHis-SUMO tag; Likely glycosylated (apparent 14 kDa); also called AtLURE1.2 peptide; source: also co-expressed with AtPRK6^LRR for the crystallised complex; not shown: His6, N-terminal, cleaved; SUMO, N-terminal, …
Q: Does B1 bind [1]?
A: binds

Q: And the Ka [2]?
A: 321000 M⁻¹

Q: What about the Kd [3] of the same molecule?
A: ~3.1 µM

B2: R68A: R68A mutant AtLURE1.2 peptide (protein, UniProt Q4VP08 20-90, looked up, variant R68A)
Protein LURE 1.2: B1 chain with R49A
Q: With B2 as the molecule, how does the “pollen tube attraction activity (in words)” value [4, 8] read?
A: little effect

B3: R79A: R79A mutant AtLURE1.2 peptide (protein, UniProt Q4VP08 20-90, looked up, variant R79A)
Protein LURE 1.2: B1 chain with R60A
Q: For B3, which “pollen tube attraction activity (in words)” value [4, 8] is on record?
A: little effect

B4: R73A: R73A mutant AtLURE1.2 peptide (protein, UniProt Q4VP08 20-90, looked up, variant R73A)
Protein LURE 1.2: B1 chain with R54A
Q: How did the “pollen tube attraction activity (in words)” value [4, 8] turn out when B4 was run?
A: little effect

B5: R83A: R83A AtLURE1.2 peptide, Arg83 substituted with alanine (protein)
chain: B1 chain with R64A
modifications: left off: His6, N-terminal, cleaved | SUMO, N-terminal, cleaved
notes: R83A AtLURE1.2 peptide, Arg83 substituted with alanine
Q: For B5, which “wavy pollen tube response” value [5] is on record?
A: decreased; also recorded: greatly reduced the numbers of wavy pollen tubes

Q: And the “interaction in pull-down assay” value ([6]; Ni-NTA, excess AtLURE1.2, on ice 30 min, washed five times, 25 mM Tris pH 8.0, 150 mM NaCl, SDS-PAGE, Coomassie blue, repeated at least three times)?
A: compromised but not abolished; also recorded: compromised

Q: And the “interaction in pull-down assay, less harsh washing” value ([6]; once or twice washing, peer review file)?
A: much less than the wild type AtLURE1.2

Q: And the “pollen tube attraction activity (in words)” value [4, 8]?
A: significantly lower than those in other four peptides

Q: And the “attraction frequency of pollen tubes” value ([4]; gelatin beads containing 250 nM peptide, mean ± SD, 9–16 pollen tubes per assay, 3−5 assays)?
A: 56 ± 11%

Q: What about the “pollen tubes not attracted to the bead” value ([4]; gelatin beads, 250 nM peptide) of the same molecule?
A: more than 44%

B6: AtLURE1.2 R83A (residues 20-90) (peptide, UniProt Q4VP08 20-90, looked up)
chain: B1 chain with R64A
notes: AtLURE1.2 of Arabidopsis thaliana, mature form, residues 20-90, with R83A; also called R83A AtLURE1.2; mutant peptide R83A; source: High Five insect cells (baculovirus), secreted, purified as AtLURE1.2; not shown: His6, N-terminal, cleaved; SUMO, N-terminal, cleaved
Q: Does B6 bind [7]?
A: binds
